We go through one sequence from patent US20030017497A1, “Peptide mimotopes of carbohydrate antigens” (priority 1998, published 2003).

One data set concerns MCF-7. Description: Complement dependent cytotoxicity (CDC). It is filed as cell-based, human. The text has this:
(§1) Anti-carbohydrate antibodies may mediate complement dependent cytotoxicity (CDC) better than cytotoxicity associated with various effector cells. Subsequently, we have initially examined CDC mediation of various sera raised either to peptides or against the multivalent LeY-PAA form. […] We examined the ability of the sera to mediate complement dependent cytotoxicity (CDC) of the SKBR3 and MCF7 human breast adenocarcinoma cell lines, the ovarian tumor cell line OVAR-3 and the human melanoma lines WM793 and SKMEL-28 compared to that of the LeY-PAA generated sera. Positive control antibodies were BR55-2 which mediates CDC of the adenocarcinoma lines, and ME361 which mediates killing of WM793. Negative controls were pre-immune sera, an irrelevant peptide immunogen (C1) and two peptides (G1 and G2) isolated from phage display that are reactive with ME361.

In the next data set the test system is OVAR-3. Description: Complement dependent cytotoxicity (CDC). It is filed as cell-based, human.
Source text: as §1

The subject of a further data set is SKBR3. As to the kind of experiment: Complement dependent cytotoxicity (CDC). It is filed as cell-based, human.
Source text: as §1

Another data set concerns SKME1-28. Description: Complement dependent cytotoxicity (CDC). It is filed as cell-based, human.
Source text: as §1

The subject of another data set is WM793. Description: Complement dependent cytotoxicity (CDC). Type of data set: cell-based, human.
Source text: as §1

For a further data set, the system named is HIV-1/MN. As to the kind of experiment: HIV-1 cell free neutralization (syncytia formation). Type of data set: cell-based. The conditions noted are these: anti-peptide sera. The text has this: FIGS. 7A, 7B and 7C depict anti-peptide sera mediation of HIV-1 cell free neutralization.
Mannose, sialyl and histo-blood group related carbohydrate epitopes (particularly LeY) are found on the major envelope protein of the human immunodeficiency virus (HIV). Consequently, we examined the extent to which the anti-peptide sera could mediate HIV-1 cell free neutralization. We observed that sera from Balb/c and C57B1/6 mice immunized with P1 or P2, neutralized HIV-1/MN at final dilution's up to 1:64 (FIGS. 7a-c). FIG. 7a illustrates the neutralization of HIV-1/MN by anti-P1 and P2 sera from Balb/c mice. Normal human sera (NHS), as well as the anti-P3 sera, were ineffective at blocking syncytia formnation, whereas human α-HIV-1 sera from 4 different infected patients neutralize cell free virus at dilution's up to 1:64. Sera derived from C57B1/6 mice also followed this profile (FIG. 7b). The isolate specificity was further determined by cell free neutralization of the HIV-1/3B isolate (FIG. 7c).

Regarding “GGIYYRYDIYYRYDIYYRYD (Novel Sequence) [Peptide P3]”, the averaged percent cytotoxicity in the data set with MCF-7 is on record as 56%; in the data set on OVAR-3, 86%; in the data set with SKBR3, 86%; in the data set on SKME1-28, 32%; with WM793, 28%. In addition, the blocking syncytia formation result in the data set with HIV-1/MN is “ineffective”.
